Biological target: T1, human IL10Rb ECD antigen (human, UniProt Q08334 20-220)
T1 construct: Coat of the panning and PE-ELISA plates; also called hIL10Rb extracellular domain; IL10Rb (plate coat)
T1 sequence: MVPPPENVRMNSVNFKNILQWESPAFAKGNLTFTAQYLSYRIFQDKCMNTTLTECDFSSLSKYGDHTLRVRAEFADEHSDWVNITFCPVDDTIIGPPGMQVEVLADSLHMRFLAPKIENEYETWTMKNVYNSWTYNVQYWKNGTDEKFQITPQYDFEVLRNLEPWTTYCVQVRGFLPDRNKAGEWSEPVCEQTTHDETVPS
Assay: periplasmic extract ELISA of phage clones on antigen-coated plate
Description: Upon completion of the biopanning of Example 3, three 96-well plates of individual phage clones were isolated in order to perform periplasmic extract ELISA (PE-ELISA) on IL10Rb coated plates to identify positive VHH binders that selectively bound IL10Rb. A 96-well plate was coated with IL10Rb and PBS under the same conditions. Next, wells were blocked at 37° C. for 1 h. Then, 100 μl of extracted antibodies was added to each well and incubated for 1 h. Subsequently, 100 μl of anti-tag polyclonal antibody conjugated to HRP was added to each well and incubated at 37° C. for 1 h. Plates were developed with TMB substrate. The reaction was stopped by the addition of H2SO4. Absorbance at 450 nm was read on a microtiter plate reader. Antibodies with absorbance of the antigen-coated well at least threefold greater than PBS-coated control are VHHs that specifically bind to IL10Rb. Positive clones were sequenced, and sequences analyzed to identify unique clonotypes

B1: hIL10Rb_VHH-4 (VHH)
VHH: QVQLQESGGGSIQAGGSLRLSCAASRYLYSIDYMAWFRQSPGKEREPVAVIYTASGATFYPDSVKGRFTISQDNAKMTVYLQMNSLKSEDTAMYYCAAVRKTDSYLFDAQSFTYWGQGTQVTVSS
notes: Periplasmic extract of the phage clone (pMECS, HA/His) as tested in PE-ELISA; not shown: HA/His tag of the pMECS phagemid
  binding result: binds

B2: hIL10Rb_VHH-6 (VHH)
VHH: QVQLQESGGGSIQAGGSLTLSCAASRDLYSTNYVAWFRQSPGKEREAVAVIYTASGATLYSDSVKGRFTISQDNAKMTVYLQMNSLKSEDTAMYYCAAVRKTGHYLFDAQSFTYWGQGTQVTVSS
notes: as for B1
  binding result: binds

Source: US20250333521A1 (SYNTHEKINE, published 2025)
